Test results as given in PMC10842222.

Target: CRM1 (UniProt O14980)
Experiment: co-immunoprecipitation, immunoblot
Details: reference: ALKBH5 WT, EGF-treated; sites Y71

binding against the reference: stronger
Substance: ALKBH5 (from UniProt Q6P6C2) ALKBH5 Y71F, EGF-treated
